From PMC12590944

Target: Archaeoglobus fulgidus ferritin (AfFt), empty cage (Archaeoglobus fulgidus) (UniProt O29424)
Test: UV-vis spectra; AfFt@ samples (AfFt mixed with APEX2-GFP+ at 1:3 under 300 mM NaCl); cargo per cage calculated from the spectra

stoichiometry N (cargo molecules per cage): 1.45
Substance: Engineered Ascorbate Peroxidase 2-GFP+36 fusion protein (APEX2-GFP+) (enzyme)
